According to patent US20100298539A1:
“And” between values parts separate entries of the source, which are not always exact repeats. Equal entries are not always repeated.

target: CD88-N-term peptide ABCF-1 (biotinylated C5aR peptide) (UniProt P21730); assay: C5aR peptide ELISA
Sequence (P21730 7-28 limits assumed): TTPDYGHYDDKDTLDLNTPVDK

| Substance | specific activity (%) |
| --- | --- |
| CHIPS clone 1F8 (Y48H, D83G, L90P), A6QIG7 29-140 | 93% |
| CHIPS clone 2D5 (K40E, K69A, N111K, G112V), A6QIG7 29-138 | 132% |
| CHIPS clone 7B3 (N111I) (from UniProt A6QIG7 29-140) (other; other documents disagree on this pair) | 140% |
| CHIPS K69A control (lysate), A6QIG7 29-140 | 116% |
| CHIPS clone 2C9 (K54R, K69R, K100R, K105R), A6QIG7 29-140 | 115% |
| CHIPS clone 3C4 (K69A, G112V), A6QIG7 29-139 | 94% |
| CHIPS clone 3H1 (G112V) (from UniProt A6QIG7 29-139) (other; other documents disagree on this pair) | 109% |
| CHIPS clone 6E1 (S104Y), A6QIG7 29-140 | 76% |
| CHIPS clone 5H1 (K50N), A6QIG7 29-140 | 88% |
| CHIPS clone 2H5 (K69A, K100R, K101R), A6QIG7 29-140 | 113% |
| CHIPS clone 4E5 (K69T), A6QIG7 29-140 | 76% |
| CHIPSwt control (lysate) (from UniProt A6QIG7 29-149) (other; other documents disagree on this pair) | 106% |
| CHIPS clone 7E4 (K40N, K92R), A6QIG7 29-140 | 65% |

target: human C5a receptor (C5aR) (human) (UniProt P21730); assay: flow cytometry on U937/C5aR cells, 2H7 detection
Sequence (P21730 whole entry): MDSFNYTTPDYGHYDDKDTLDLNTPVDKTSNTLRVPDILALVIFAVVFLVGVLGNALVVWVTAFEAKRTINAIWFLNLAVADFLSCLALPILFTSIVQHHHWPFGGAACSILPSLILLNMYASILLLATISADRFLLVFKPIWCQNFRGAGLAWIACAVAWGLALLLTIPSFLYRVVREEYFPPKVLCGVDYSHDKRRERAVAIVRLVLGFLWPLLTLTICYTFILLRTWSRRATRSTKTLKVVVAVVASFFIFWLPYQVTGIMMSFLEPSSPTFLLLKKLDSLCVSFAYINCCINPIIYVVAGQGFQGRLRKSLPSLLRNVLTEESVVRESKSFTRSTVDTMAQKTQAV

| Substance | Binding U937cells C5aR (0.3 µg/ml) % of wt 1-112 |
| --- | --- |
| Chemotaxis Inhibitory Protein of Staphylococcus aureus (CHIPS), wildtype, amino acids 1-121 (from UniProt A6QIG7 29-149) | 28% |

target: human C5a receptor (C5aR) (human) (UniProt P21730); assay: dual fMLP-F/α-C5aR-PE flow cytometry on neutrophils

| Substance | Dual bind PMN (%) |
| --- | --- |
| Chemotaxis Inhibitory Protein of Staphylococcus aureus (CHIPS), wildtype, amino acids 1-121 (from UniProt A6QIG7 29-149) | 112% |

target: human C5a receptor (C5aR) (human) (UniProt P21730); assay: not given

| Substance | IC50 (read off the curve) |
| --- | --- |
| Chemotaxis Inhibitory Protein of Staphylococcus aureus (CHIPS), wildtype, amino acids 1-121 (from UniProt A6QIG7 29-149) | 0.07 ng/mL |

target: CD88-N-term peptide ABCF-1 (biotinylated C5aR peptide) (UniProt P21730); assay: C5aR peptide ELISA, lysate

| Substance | pept-ELISA bindn (%) | Abs 492 nm | Pep. bind. | Pep. bind. Log (ng/ml) | Spec. activity pep/expr (%) |
| --- | --- | --- | --- | --- | --- |
| CHIPS S32A (from UniProt A6QIG7 29-149) (other; other documents disagree on this pair) | 15% |  |  |  |  |
| CHIPS K69A control (lysate), A6QIG7 29-140 | 15% | 1.41 and 1.39 | 126 ng/mL and 120 ng/mL | 2.1 log ng/ml and 2.08 log ng/ml | 116% and 112% |
| CHIPS P35A (from UniProt A6QIG7 29-149) (other; other documents disagree on this pair) | 54% and 68% |  |  |  |  |
| CHIPS S107A (from UniProt A6QIG7 29-149) (other; other documents disagree on this pair) | 11% |  |  |  |  |
| CHIPS T53A (from UniProt A6QIG7 29-149) (other; other documents disagree on this pair) | 7% |  |  |  |  |
| CHIPS P79A (from UniProt A6QIG7 29-149) (other; other documents disagree on this pair) | 28% and 25% |  |  |  |  |
| CHIPS L76A (from UniProt A6QIG7 29-149) (other; other documents disagree on this pair) | 1% and 2% |  |  |  |  |
| CHIPS E67A (from UniProt A6QIG7 29-149) (other; other documents disagree on this pair) | 52% and 39% |  |  |  |  |
| CHIPS N55A (from UniProt A6QIG7 29-149) (other; other documents disagree on this pair) | 8% and 9% |  |  |  |  |
| CHIPS L90A (from UniProt A6QIG7 29-149) (other; other documents disagree on this pair) | 25% and 24% |  |  |  |  |
| CHIPS N31A (from UniProt A6QIG7 29-149) (other; other documents disagree on this pair) | 16% and 23% |  |  |  |  |
| CHIPS G33A (from UniProt A6QIG7 29-149) (other; other documents disagree on this pair) | 13% |  |  |  |  |
| CHIPS Y48A (from UniProt A6QIG7 29-149) (other; other documents disagree on this pair) | 86% and 70% |  |  |  |  |
| CHIPS G52A (from UniProt A6QIG7 29-149) (other; other documents disagree on this pair) | 19% and 20% |  |  |  |  |
| CHIPS L34A (from UniProt A6QIG7 29-149) (other; other documents disagree on this pair) | 13% and 12% |  |  |  |  |
| CHIPS S56A (from UniProt A6QIG7 29-149) (other; other documents disagree on this pair) | 18% and 16% |  |  |  |  |
| CHIPSwt control (lysate) (from UniProt A6QIG7 29-149) (other; other documents disagree on this pair) | 21% | 1.48 and 1.41 | 155 ng/mL and 126 ng/mL | 2.19 log ng/ml and 2.1 log ng/ml | 119% and 106% |
| CHIPS Q58A (from UniProt A6QIG7 29-149) (other; other documents disagree on this pair) | 2% and 3% |  |  |  |  |
| CHIPS Y108A (from UniProt A6QIG7 29-149) (other; other documents disagree on this pair) | 1% |  |  |  |  |
